Test results: patent US7101843B2, “Glucagon-like peptide-1 analogs” (Eli Lilly and Company, priority 2001, dated 2006)
Where “and” joins values, the source holds several entries; their conditions need not be identical. Identical values can stand only once.

What was measured:
[1] = GLP aggregation assay (turbidity at 350 nm, time to onset of aggregation); type: physicochemical; settings: for aggregation time: at 30° C., stirred solution, pH 7.4
Description: GLP peptides of this invention were analyzed with respect to their potential to aggregate in solution. In general, peptides in solution were stirred at elevated temperature in a suitable buffer while recording turbidity at 350 nm as a function of time. Time to the onset of aggregation was measured to quantify the potential of a given GLP molecule to aggregate under these stressed conditions.
A GLP-1 compound was first dissolved under alkaline conditions (pH 10.5) for 30 minutes to dissolve any pre-aggregated material. The solution was then adjusted to pH 7.4 and filtered. Specifically, 4 mg of a lyophilized GLP-1 compound was dissolved in 3 ml of 10 mM phosphate/10 mM citrate. The pH was adjusted to 10.0–10.5 and held for 30 minutes. The solution was adjusted with HCl to pH 7.4 and filtered through a suitable filter, for example a Millex GV syringe filter (Millipore Corporation, Bedford, Mass.). […] Every five minutes the turbidity of the solution was measured at 350 nm on an AVIV Model 14DS UV-VIS spectrophotometer (Lakewood, N.J.). For 30 seconds prior to and during the measurement the solution was stirred using a magnetic stir bar from Starna Cells, Inc. (Atascadero, Calif.). An increase in OD at 350 nm indicates aggregation of the GLP-peptide. The time to aggregation was approximated by the intersection of linear fits to the pre-growth and growth phase according to method of Drake (Arvinte T, Cudd A, and Drake A F. (1993) J. Bio. Chem. 268, 6415–6422).

[2] = target: GLP-1 receptor (Homo sapiens, UniProt P43220); assay: GLP-1 receptor activation in vitro; type: cell-based; settings: Val^8-GLP-1(7-37)OH = 1.0, several values in a cell are repeat determinations
Excerpt: “Insulinotropic activity” refers to the ability to stimulate insulin secretion in response to elevated glucose levels, thereby causing glucose uptake by cells and decreased plasma glucose levels. […] The entire teachings of these references are incorporated herein by reference.
The entire teachings of these references are incorporated herein by reference.

[3] = test system: plasma insulin and plasma glucose; assay: Intravenous glucose tolerance test (IVGTT) in rats; type: in vivo, wistar male rats; settings: plasma insulin after injection (figures)
Description: FIG. 1 graphs plasma insulin and plasma glucose concentrations obtained at various time points after injection of increasing concentrations of Val^8-GLP-1(7–37)OH in rats.
FIG. 2 graphs plasma insulin concentrations obtained at various time points after injection of increasing concentrations of Val^8-Glu^22-Val^25-Ile^33-GLP-1 (7–37)OH in rats.
A double cannulation procedure was performed on fasting wistar male rats to facilitate injection of solutions and withdrawal of blood. Rats were injected through the jugular cannula with a bolus of 10% glucose solution followed by a solution containing a specific amount of a GLP-1 compound. Rats were injected with 0.01, 0.03, 0.1, 0.3, 1, and 10 μg/kg of GLP-1 compound. Blood was collected through the carotid cannula 2, 4, 6, 10, and 30 minutes following the injection of GLP-1 compound and analyzed. Plasma insulin and plasma glucose levels were measured in each sample. Average insulin and glucose levels are illustrated in FIGS. 1, 2, and 3.

Chain of GLP-1 receptor (P43220 24-463, species assumed): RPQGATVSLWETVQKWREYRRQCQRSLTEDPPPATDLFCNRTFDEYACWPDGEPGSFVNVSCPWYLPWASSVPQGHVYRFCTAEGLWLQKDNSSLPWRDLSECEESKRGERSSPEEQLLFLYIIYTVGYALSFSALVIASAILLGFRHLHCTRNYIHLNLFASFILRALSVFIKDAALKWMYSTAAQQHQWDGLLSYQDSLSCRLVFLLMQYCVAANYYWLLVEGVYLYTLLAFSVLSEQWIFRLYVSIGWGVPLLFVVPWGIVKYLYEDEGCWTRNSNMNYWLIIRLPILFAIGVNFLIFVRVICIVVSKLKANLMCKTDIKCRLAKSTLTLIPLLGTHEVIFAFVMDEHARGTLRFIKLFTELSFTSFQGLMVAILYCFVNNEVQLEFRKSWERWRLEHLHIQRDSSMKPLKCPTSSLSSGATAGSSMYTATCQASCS

| Substance | aggregation time [1] | propensity to aggregate in solution compared to Val^8-GLP-1(7–37)OH [1] | GLP-1 receptor activation relative to Val^8-GLP-1(7-37)OH [2] | in vivo potency compared to Val^8-GLP-1(7–37)OH [3] |
| --- | --- | --- | --- | --- |
| Val^8-Glu^22-GLP-1(7–37)OH | approximately 72 hours | markedly decreased propensity to aggregate | – | – |
| Val^8-Glu^22-Ile^33-GLP-1(7-37)OH (HVEGTFTSDVSSYLEEQAAKEFIAWLIKGRG) [GLP-1 analog] | – | – | 4.7 and 3.8 and 3.4 | – |
| Val^8-Glu^22-Val^25-GLP-1(7-37)OH (HVEGTFTSDVSSYLEEQAVKEFIAWLVKGRG) [GLP-1 analog] | – | – | 4.7 and 2.9 | – |
| Val^8-Glu^22-Val^25-Ile^33-GLP-1(7-37)OH (HVEGTFTSDVSSYLEEQAVKEFIAWLIKGRG) [GLP-1 analog] | – | – | 4.9 and 5.8 and 6.7 | higher in vivo potency |
| Val^8-Glu^30-GLP-1(7-37)OH (HVEGTFTSDVSSYLEGQAAKEFIEWLVKGRG) [GLP-1 analog] | approximately 30 hours | markedly decreased propensity to aggregate | – | – |
| Val^8-His^37-GLP-1(7-37)OH (HVEGTFTSDVSSYLEGQAAKEFIAWLVKGRH) [GLP-1 analog] | greater than 40 hours | markedly decreased propensity to aggregate | – | – |
| Val^8-Tyr^16-Glu^22-GLP-1(7-37)OH (HVEGTFTSDYSSYLEEQAAKEFIAWLVKGRG) [GLP-1 analog] | – | – | 3.6 and 3.8 and 4.9 and 4.6 | – |
| Val^8-Tyr^18-Glu^22-GLP-1(7-37)OH (HVEGTFTSDVSYYLEEQAAKEFIAWLVKGRG) [GLP-1 analog] | – | – | 5.1 and 5.9 | – |
